Source: patent US20060058231A1 (Xencor, published 2006)

T1: BMPRII receptor-Fc fusion (UniProt Q13873 27-151, limits assumed)
T1 construct: BMP receptor-Fc fusion used at 5 ug/mL
T1 sequence (looked up): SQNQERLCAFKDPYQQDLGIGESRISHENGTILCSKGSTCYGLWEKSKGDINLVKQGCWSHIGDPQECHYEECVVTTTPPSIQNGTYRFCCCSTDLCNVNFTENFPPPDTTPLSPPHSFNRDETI

T2: BMPRIb receptor-Fc fusion (UniProt O00238 14-126)
T2 construct: BMP receptor-Fc fusion used at 5 ug/mL; also called ALK-6
T2 sequence (looked up): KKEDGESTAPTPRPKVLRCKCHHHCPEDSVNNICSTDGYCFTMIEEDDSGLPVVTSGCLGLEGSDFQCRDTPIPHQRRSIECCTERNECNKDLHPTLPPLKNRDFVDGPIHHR


Experiments:
Assay in all cases: ELISA-like plate assay, captured BMP-7 from conditioned media, receptor-Fc detection
[1] = biological target: T3, ActRIIa receptor-Fc fusion (UniProt P27037 20-134, limits assumed)
T3 construct: BMP receptor-Fc fusion used at 5 ug/mL

[2] = biological target: T1, BMPRII receptor-Fc fusion
[3] = biological target: T2, BMPRIb receptor-Fc fusion
[4] = biological target: T4, BMPRIa receptor-Fc fusion (UniProt P36894 24-152, limits assumed)
T4 construct: also called ALK-3
T4 sequence (P36894 24-152 limits assumed): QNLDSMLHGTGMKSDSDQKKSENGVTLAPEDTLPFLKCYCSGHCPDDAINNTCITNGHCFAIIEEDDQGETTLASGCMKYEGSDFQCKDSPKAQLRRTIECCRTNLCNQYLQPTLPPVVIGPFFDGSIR

T3 sequence (P27037 20-134 limits assumed): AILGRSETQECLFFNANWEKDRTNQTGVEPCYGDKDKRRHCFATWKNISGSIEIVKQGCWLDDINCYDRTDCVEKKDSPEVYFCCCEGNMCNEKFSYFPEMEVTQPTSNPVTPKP

Row | Binder | ActRIIa binding (relative to wild type = 1.0) [1] | BMPRII binding (relative to wild type = 1.0) [2] | BMPRIb binding (relative to wild type = 1.0) [3] | BMPRIa binding (relative to wild type = 1.0) [4]
1 | BMP-7 variant E60H (ligand, In conditioned media; numbering on mature BMP-7) STGGKQRSQNRSKTPKNQEALRMASVAENSSSDQRQACKKHELYVSFRDLGWQDWIIAPHGYAAYYCEGECAFPLNSYMNATNHAIVQTLVHFINPETVPKPCCAPTQLNAISVLYFDDSSNVILKKYRNMVVRACGCH | 0.86 relative to wild type | 1.25 relative to wild type | 0.42 relative to wild type | 0.34 relative to wild type
2 | BMP-7 variant E60P (ligand, In conditioned media; numbering on mature BMP-7) STGGKQRSQNRSKTPKNQEALRMASVAENSSSDQRQACKKHELYVSFRDLGWQDWIIAPPGYAAYYCEGECAFPLNSYMNATNHAIVQTLVHFINPETVPKPCCAPTQLNAISVLYFDDSSNVILKKYRNMVVRACGCH | 0.94 relative to wild type | 1.01 relative to wild type | 0.53 relative to wild type | 0.47 relative to wild type
3 | BMP-7 variant F73D (ligand, In conditioned media; numbering on mature BMP-7) STGGKQRSQNRSKTPKNQEALRMASVAENSSSDQRQACKKHELYVSFRDLGWQDWIIAPEGYAAYYCEGECADPLNSYMNATNHAIVQTLVHFINPETVPKPCCAPTQLNAISVLYFDDSSNVILKKYRNMVVRACGCH | 2.5 relative to wild type | 3.05 relative to wild type | 0.64 relative to wild type | 0.33 relative to wild type
4 | BMP-7 variant F73E (ligand, In conditioned media; numbering on mature BMP-7) STGGKQRSQNRSKTPKNQEALRMASVAENSSSDQRQACKKHELYVSFRDLGWQDWIIAPEGYAAYYCEGECAEPLNSYMNATNHAIVQTLVHFINPETVPKPCCAPTQLNAISVLYFDDSSNVILKKYRNMVVRACGCH | 1.87 relative to wild type | 1.77 relative to wild type | 1.23 relative to wild type | 0.55 relative to wild type
5 | BMP-7 variant F73K (ligand, In conditioned media; numbering on mature BMP-7) STGGKQRSQNRSKTPKNQEALRMASVAENSSSDQRQACKKHELYVSFRDLGWQDWIIAPEGYAAYYCEGECAKPLNSYMNATNHAIVQTLVHFINPETVPKPCCAPTQLNAISVLYFDDSSNVILKKYRNMVVRACGCH | 0.61 relative to wild type | 0.38 relative to wild type | 1.14 relative to wild type | 0.69 relative to wild type
6 | BMP-7 variant F73N (ligand, In conditioned media; numbering on mature BMP-7) STGGKQRSQNRSKTPKNQEALRMASVAENSSSDQRQACKKHELYVSFRDLGWQDWIIAPEGYAAYYCEGECANPLNSYMNATNHAIVQTLVHFINPETVPKPCCAPTQLNAISVLYFDDSSNVILKKYRNMVVRACGCH | 0.89 relative to wild type | 0.85 relative to wild type | 0.95 relative to wild type | 0.51 relative to wild type
7 | BMP-7 variant F73Q (ligand, In conditioned media; numbering on mature BMP-7) STGGKQRSQNRSKTPKNQEALRMASVAENSSSDQRQACKKHELYVSFRDLGWQDWIIAPEGYAAYYCEGECAQPLNSYMNATNHAIVQTLVHFINPETVPKPCCAPTQLNAISVLYFDDSSNVILKKYRNMVVRACGCH | 1.87 relative to wild type | 2.85 relative to wild type | 1.71 relative to wild type | 1.05 relative to wild type
8 | BMP-7 variant F73S (ligand, In conditioned media; numbering on mature BMP-7) STGGKQRSQNRSKTPKNQEALRMASVAENSSSDQRQACKKHELYVSFRDLGWQDWIIAPEGYAAYYCEGECASPLNSYMNATNHAIVQTLVHFINPETVPKPCCAPTQLNAISVLYFDDSSNVILKKYRNMVVRACGCH | 2.54 relative to wild type | 2.84 relative to wild type | 0.25 relative to wild type | 0.9 relative to wild type
9 | BMP-7 variant F93A (ligand, In conditioned media; numbering on mature BMP-7) STGGKQRSQNRSKTPKNQEALRMASVAENSSSDQRQACKKHELYVSFRDLGWQDWIIAPEGYAAYYCEGECAFPLNSYMNATNHAIVQTLVHAINPETVPKPCCAPTQLNAISVLYFDDSSNVILKKYRNMVVRACGCH | 0.11 relative to wild type | – | 0.24 relative to wild type | 0.1 relative to wild type
10 | BMP-7 variant F93D (ligand, In conditioned media; numbering on mature BMP-7) STGGKQRSQNRSKTPKNQEALRMASVAENSSSDQRQACKKHELYVSFRDLGWQDWIIAPEGYAAYYCEGECAFPLNSYMNATNHAIVQTLVHDINPETVPKPCCAPTQLNAISVLYFDDSSNVILKKYRNMVVRACGCH | 0.8 relative to wild type | 0.62 relative to wild type | 0.91 relative to wild type | 0.96 relative to wild type
11 | BMP-7 variant F93E (ligand, In conditioned media; numbering on mature BMP-7) STGGKQRSQNRSKTPKNQEALRMASVAENSSSDQRQACKKHELYVSFRDLGWQDWIIAPEGYAAYYCEGECAFPLNSYMNATNHAIVQTLVHEINPETVPKPCCAPTQLNAISVLYFDDSSNVILKKYRNMVVRACGCH | 0.79 relative to wild type | 0.62 relative to wild type | 0.99 relative to wild type | 0.83 relative to wild type
12 | BMP-7 variant F93G (ligand, In conditioned media; numbering on mature BMP-7) STGGKQRSQNRSKTPKNQEALRMASVAENSSSDQRQACKKHELYVSFRDLGWQDWIIAPEGYAAYYCEGECAFPLNSYMNATNHAIVQTLVHGINPETVPKPCCAPTQLNAISVLYFDDSSNVILKKYRNMVVRACGCH | 0.63 relative to wild type | 0.35 relative to wild type | 0.53 relative to wild type | 0.6 relative to wild type
13 | BMP-7 variant F93H (ligand, In conditioned media; numbering on mature BMP-7) STGGKQRSQNRSKTPKNQEALRMASVAENSSSDQRQACKKHELYVSFRDLGWQDWIIAPEGYAAYYCEGECAFPLNSYMNATNHAIVQTLVHHINPETVPKPCCAPTQLNAISVLYFDDSSNVILKKYRNMVVRACGCH | 0.98 relative to wild type | 1.2 relative to wild type | 1.04 relative to wild type | 1.03 relative to wild type
14 | BMP-7 variant F117S (ligand, In conditioned media; numbering on mature BMP-7) STGGKQRSQNRSKTPKNQEALRMASVAENSSSDQRQACKKHELYVSFRDLGWQDWIIAPEGYAAYYCEGECAFPLNSYMNATNHAIVQTLVHFINPETVPKPCCAPTQLNAISVLYSDDSSNVILKKYRNMVVRACGCH | 0.11 relative to wild type | – | – | 0.15 relative to wild type
15 | BMP-7 variant L21E (ligand, In conditioned media; numbering on mature BMP-7) STGGKQRSQNRSKTPKNQEAERMASVAENSSSDQRQACKKHELYVSFRDLGWQDWIIAPEGYAAYYCEGECAFPLNSYMNATNHAIVQTLVHFINPETVPKPCCAPTQLNAISVLYFDDSSNVILKKYRNMVVRACGCH | 0.25 relative to wild type | – | 0.16 relative to wild type | 0.12 relative to wild type
16 | BMP-7 variant L90R (ligand, In conditioned media; numbering on mature BMP-7) STGGKQRSQNRSKTPKNQEALRMASVAENSSSDQRQACKKHELYVSFRDLGWQDWIIAPEGYAAYYCEGECAFPLNSYMNATNHAIVQTRVHFINPETVPKPCCAPTQLNAISVLYFDDSSNVILKKYRNMVVRACGCH | 0.47 relative to wild type | – | – | –
17 | BMP-7 variant L115A (ligand, In conditioned media; numbering on mature BMP-7) STGGKQRSQNRSKTPKNQEALRMASVAENSSSDQRQACKKHELYVSFRDLGWQDWIIAPEGYAAYYCEGECAFPLNSYMNATNHAIVQTLVHFINPETVPKPCCAPTQLNAISVAYFDDSSNVILKKYRNMVVRACGCH | – | – | 0.17 relative to wild type | –
18 | BMP-7 variant R48E (ligand, In conditioned media; numbering on mature BMP-7) STGGKQRSQNRSKTPKNQEALRMASVAENSSSDQRQACKKHELYVSFEDLGWQDWIIAPEGYAAYYCEGECAFPLNSYMNATNHAIVQTLVHFINPETVPKPCCAPTQLNAISVLYFDDSSNVILKKYRNMVVRACGCH | 0.34 relative to wild type | – | – | 0.45 relative to wild type
19 | BMP-7 variant S77H (ligand, In conditioned media; numbering on mature BMP-7) STGGKQRSQNRSKTPKNQEALRMASVAENSSSDQRQACKKHELYVSFRDLGWQDWIIAPEGYAAYYCEGECAFPLNHYMNATNHAIVQTLVHFINPETVPKPCCAPTQLNAISVLYFDDSSNVILKKYRNMVVRACGCH | 0.42 relative to wild type | – | 0.3 relative to wild type | 0.29 relative to wild type
20 | BMP-7 variant W52P (ligand, In conditioned media; numbering on mature BMP-7) STGGKQRSQNRSKTPKNQEALRMASVAENSSSDQRQACKKHELYVSFRDLGPQDWIIAPEGYAAYYCEGECAFPLNSYMNATNHAIVQTLVHFINPETVPKPCCAPTQLNAISVLYFDDSSNVILKKYRNMVVRACGCH | – | – | 0.14 relative to wild type | –
21 | BMP-7 variant W55A (ligand, In conditioned media; numbering on mature BMP-7) STGGKQRSQNRSKTPKNQEALRMASVAENSSSDQRQACKKHELYVSFRDLGWQDAIIAPEGYAAYYCEGECAFPLNSYMNATNHAIVQTLVHFINPETVPKPCCAPTQLNAISVLYFDDSSNVILKKYRNMVVRACGCH | – | – | 0.23 relative to wild type | 0.1 relative to wild type
